Experimental data as given in patent EP1508806A1.

Columns and labels:
[1] = target: regulatory p85α subunit of bovine PI 3-kinase (recombinant, GST part removed with thrombin) (bovine) (UniProt P23727); test: SPR competition: soluble peptide against the same peptide immobilised, 100 nM p85α
[2] = target: GST fusion protein containing amino acids 449-664 of rat IRS-1 (rIRS-1 449-664), not phosphorylated (rat) (UniProt P35570); test: cell-based or functional assay
[3] = target: rIRS-1 449-664 GST fusion protein, phosphorylated in vitro by PKC from rat brain (rat) (UniProt P35570); test: cell-based or functional assay
[4] = target: rIRS-1 449-664 GST fusion protein, phosphorylated in vitro by PKC-ζ (rat) (UniProt P35570); test: cell-based or functional assay
[5] = target: rIRS-1 449-664 S570A GST fusion protein, pretreated with PKC-ζ (rat) (UniProt P35570); test: cell-based or functional assay
[6] = target: rIRS-1 449-664 S612A GST fusion protein, pretreated with PKC-ζ (rat) (UniProt P35570); test: cell-based or functional assay
[7] = target: rIRS-1 449-664 S570A GST fusion protein, pretreated with PKC-ζ and then tyrosine phosphorylated by insulin receptor (rat) (UniProt P35570); test: GST pull-down, anti-p85α immunoblot quantified; relative to the insulin-stimulated control value set as 100%
[8] = target: rIRS-1 449-664 S612A GST fusion protein, pretreated with PKC-ζ and then tyrosine phosphorylated by insulin receptor (rat) (UniProt P35570); test: as above
[9] = target: rIRS-1 449-664 GST fusion protein, pretreated with PKC-ζ and then tyrosine phosphorylated by insulin receptor (rat) (UniProt P35570); test: GST pull-down, anti-p85α immunoblot quantified; against the insulin-stimulated value without PKC-ζ set as 100%
[10] = target: rIRS-1 449-664 GST fusion protein, pretreated with PKC from rat brain and then tyrosine phosphorylated by insulin receptor (rat) (UniProt P35570); test: GST pull-down, anti-p85α immunoblot quantified; against the insulin-stimulated value without PKC-rb set as 100%

Sequence of UniProt P23727 (P23727 whole entry, the tested form may be a part): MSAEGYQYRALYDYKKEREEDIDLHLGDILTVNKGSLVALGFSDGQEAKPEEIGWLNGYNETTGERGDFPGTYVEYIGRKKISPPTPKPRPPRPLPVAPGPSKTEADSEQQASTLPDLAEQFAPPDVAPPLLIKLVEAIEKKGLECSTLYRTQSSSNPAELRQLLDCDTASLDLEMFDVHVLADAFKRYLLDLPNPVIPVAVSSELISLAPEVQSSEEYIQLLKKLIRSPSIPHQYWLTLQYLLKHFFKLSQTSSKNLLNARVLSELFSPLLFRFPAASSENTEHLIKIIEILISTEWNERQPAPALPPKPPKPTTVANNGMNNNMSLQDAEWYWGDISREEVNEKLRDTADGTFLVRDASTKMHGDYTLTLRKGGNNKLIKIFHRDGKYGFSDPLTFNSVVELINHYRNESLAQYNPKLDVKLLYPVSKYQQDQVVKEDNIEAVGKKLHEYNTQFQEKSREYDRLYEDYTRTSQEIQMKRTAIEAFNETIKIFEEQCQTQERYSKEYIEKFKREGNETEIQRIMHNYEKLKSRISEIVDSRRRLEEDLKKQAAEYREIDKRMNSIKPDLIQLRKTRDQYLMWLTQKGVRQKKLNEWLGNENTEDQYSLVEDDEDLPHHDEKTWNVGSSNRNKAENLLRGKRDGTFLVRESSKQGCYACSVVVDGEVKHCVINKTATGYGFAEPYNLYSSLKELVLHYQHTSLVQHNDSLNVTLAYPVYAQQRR

## IRS-1 peptide pY608, DDGpYMPMSPGV (amino acids 605 to 615 of rat IRS-1, phosphotyrosine 608)
[1]
  peptide concentration for complete inhibition: 10 µM

## IRS-1 peptide pY608-pS612, DDGpYMPMpSPGV (amino acids 605 to 615 of rat IRS-1, phosphotyrosine 608 and phosphoserine 612)
[1]
  peptide concentration for complete inhibition: 10 µM

## insulin receptor, WGA-purified from rat liver, insulin-stimulated and autophosphorylated (from UniProt P15127 27-1383)
[2]
  insulin-stimulated tyrosine phosphorylation of rIRS-1^449-664 (anti-phosphotyrosine immunoblot): 8.8 fold
[3]
  reduction of insulin-stimulated Tyr-phosphorylation of rIRS-1^449-664 after PKC-rb pretreatment: 27%
[4]
  inhibition of tyrosine phosphorylation of rIRS-1^449-664 after PKC-ζ pretreatment: 46%
  reduction of tyrosine phosphorylation by IR after PKC-ζ pretreatment: 30 to 40%
[5]
  reduction of tyrosine phosphorylation by IR after PKC-ζ pretreatment: 30 to 40%
[6]
  reduction of tyrosine phosphorylation by IR after PKC-ζ pretreatment: 30 to 40%

## regulatory p85α subunit of bovine PI 3-kinase (recombinant, GST part removed with thrombin) (from UniProt P23727 1-724)
[7]
  p85α binding, percent of control: 43%
[8]
  p85α binding, percent of control: 28%
[9]
  percent inhibition of p85α binding: 81%
[10]
  percent inhibition of the association of p85α: 49%
